Experimental data published in patent US20040204561A1, “Peptide aggregates” (priority 2002, published 2004).
Primed or numbered codes have the meaning given here. Ends that are not written are not given here. bbDTPA = DTPA chelating ligand bonded through a carbon of its ethylene backbone; bbDTPA″ = DTPA chelating ligand bound through a backbone ethylene carbon

Tests used:
[1] = Aggregation / gel formation behaviour in aqueous solution; format: physicochemical
Procedure: EP1272L (0.0842 g) was suspended in 2 mL water. To this were added 160 μL 1N NaOH, bringing the pH of the solution to 7.5. The volume was taken to 5 mL with addition of water and the solution gently swirled until all solids were dissolved. The chelatables were monitored by titration using xylenol orange as an indicator for free gadolinium. Following titration, 86.4 μL of 241 mM stock solution of GdCl3 was added to the solution with stirring followed by 60 μL 1N NaOH. Low mass impurities were removed from the solution by centrifugation over a 0.02 μm anapore membrane (Vecta-Spin). This was followed by resuspension in 20 mL of water and filtration over a 5 μm (Durapore, low protein binding) syringe filter frit. At concentrations greater than 0.5 mM, EP1272L became a non-flowing viscous gel.
As described in Examples 1-8, a self-assembling peptide having the sequence AEAEAKAKAEAEAKAK (SEQ ID NO: 1) was chemically modified to include a metal binding moiety (an organic chelating ligand) via a glycine linker to the N-terminus of the peptide; see EP1272L in FIG. 3. Modified self-assembling peptides having the same metal binding moiety at the N-terminus and further including acidic moieties at the C-terminus of the peptide were also made (see EP 1593L and EP1594L in FIG. 3).

[2] = Relaxivity measurements in PBS (T1, inversion recovery); format: physicochemical
Description: First, solutions of EP 1272L (FW=2,243 Da) were concentrated and purified by centrifugation in a filter device with a nominal molecular weight limit of 300,000 Da. The formation of high molecular weight aggregates allowed EP1272L to be retained by the filter device. […] Third, SEC-LS column retention and light scattering measurements of EP1272L were consistent with a large species having a mass distribution of 4×10^6 to 13×10^6 Da, and a hydrodynamic radius in the range of 155 nm to 210 nm.
Relaxivity measurements were made in PBS. A relaxivity titration consisting of sequential additions of EP1272L (complexed to Gd(III)) to a tube containing approximately 0.6 mL of PBS was performed. Following each addition of EP1272, the sample was thoroughly mixed by manual agitation and the temperature allowed to equilibrate for 10 minutes at 37±2° C. prior to T1 determination. The longitudinal (T1) relaxation time was determined by use of the inversion recovery pulse sequence and fitting the intensity data to an exponential decay. Measurements at 20 MHz were made using a Bruker Minispec PC 120/125/Vts nuclear magnetic resonance process analyzer. The temperature was regulated with a Haake D8-GH circulating bath at 37±2° C. Measurements at 64.5 MHz were made using a Varian XL300 adjusted to a field strength of 1.5 T with a broad band variable temperature probe tuned to 64.5 MHz. The relaxivity of EP1272 at 0.5 T and 1.5 T were 24.9 mM^−1s^−1 and 21.0 mM^−1s^−1 respectively. The relaxivity of EP1593 at 0.5 T was assessed in a similar manner and was 19.9 mM^−1s^−1. The relaxivity of EP1594 was assessed in a similar manner at 0.5 T and was 22.0 mM^−1s^−1.

[3] = target: streptavidin magnetic beads (Streptomyces avidinii, UniProt P22629); assay: Avidin affinity assay: capture by streptavidin magnetic beads, quantified by gadolinium ICP; format: binding; settings: capture by streptavidin-coated beads, FIG. 8
streptavidin magnetic beads, sequence (P22629 25-183): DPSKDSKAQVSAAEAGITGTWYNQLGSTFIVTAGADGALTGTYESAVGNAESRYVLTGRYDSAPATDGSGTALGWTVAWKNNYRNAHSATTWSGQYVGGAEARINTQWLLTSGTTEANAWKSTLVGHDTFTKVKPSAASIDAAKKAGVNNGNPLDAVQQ
Procedure: Two self-assembling peptides comprising target binding moieties were prepared (FIG. 7). EP1595 contained a C-terminal biotin target binding moiety; EP 1596 contained a C-terminal aromatic target binding moiety (phenylundecane).
EP1272L aggregates were targeted to avidin by incorporation of a biotinylated peptide (e.g., an assembling peptide containing a target binding moiety (EP1595)) into the aggregates. To 70 μL of a 1.54 mM stock solution of EP1272L was added varying amounts of EP1595. The pH was then reduced to 1.5 by addition of 1N HCl to induce mixing of the peptides. The solution was neutralized by addition of 1N NaOH and the volume brought to 500 μL with addition of water. Aggregates containing 20% biotinylated peptide (5:1 ratio of EP1272 to EP1595), 4% biotinylated-peptide (25:1 ratio), and 0.5% biotinylated peptide (200:1) were prepared.
EP1272L aggregates containing the phenylundecane substituted peptide, EP1596, in a 10:1 ratio were prepared as described above.
The three EP1595/EP1272 formulations, one EP1596/EP1272 formulation, and an EP1272 formulation were assayed for affinity to streptavidin magnetic beads. Each sample was diluted so as to maintain a constant ratio of biotinylated peptide and streptavidin binding sites in the assay. Solutions without biotin were treated as though they contained 0.5% EP1595. […] The extent of capture was quantified by gadolinium ICP.

Substance	aggregation behaviour (macroscopic membrane formation) [1]	relaxivity ([2]; 0.5 T (20 MHz), 37±2° C.) [mM⁻¹ s⁻¹]	other results
EP1593L: self-assembling peptide having a covalently attached metal binding moiety (bbDTPA) and an acidic group at the C-terminus ({bbDTPA″}-GAEAEAKAKAEAEAKAK; also: acidic group at C-terminus, not given here)	tended to aggregate, but did not form macroscopic membranes	–	–
EP1272L: self-assembling peptide AEAEAKAKAEAEAKAK (SEQ ID NO: 1) with bbDTPA chelating ligand via a glycine linker at the N-terminus (bbDTPA-GAEAEAKAKAEAEAKAK)	tended to aggregate, but did not form macroscopic membranes	–	relaxivity ([2]; 0.47 T): 25 mM⁻¹ s⁻¹; relaxivity ([2]; 1.5 T (64.5 MHz), 37±2° C.): 21 mM⁻¹ s⁻¹; affinity for streptavidin beads [3]: substantially less affinity for streptavidin beads; concentration above which a non-flowing viscous gel forms ([1]; aqueous solution after complexing with Gd(III)): greater than 0.5 mM
AEAEAKAKAEAEAKAK (Targeted aggregate peptide) [reference compound]	tended to form macroscopic membranes	–	–
EP1593: EP1593L complexed to Gd(III) (GAEAEAKAKAEAEAKAK)	–	19.9	–
EP1594L: self-assembling peptide having a covalently attached metal binding moiety (bbDTPA) and an acidic group at the C-terminus ({bbDTPA″}-GAEAEAKAKAEAEAKAK; also: acidic group at C-terminus, not given here)	tended to aggregate, but did not form macroscopic membranes	–	–
EP1272: EP1272L complexed to Gd(III) (GAEAEAKAKAEAEAKAK)	–	24.9	relaxivity ([2]; 1.5 T (64.5 MHz), 37±2° C.): 21.0 mM⁻¹ s⁻¹
EP1594: EP1594L complexed to Gd(III) (GAEAEAKAKAEAEAKAK)	–	22.0	–
